Measured values as given in US20100329980A1 (GENE TECHNO SCIENCE, published 2010).
Ends that are not written are not given here.

T1: human α4 integrin (human, UniProt P13612 34-1032)
T1 construct: whole, on cells; also called Human α4/CHO-K1 cells; CHO K1 cells expressing human α4 integrin
T1 sequence (looked up): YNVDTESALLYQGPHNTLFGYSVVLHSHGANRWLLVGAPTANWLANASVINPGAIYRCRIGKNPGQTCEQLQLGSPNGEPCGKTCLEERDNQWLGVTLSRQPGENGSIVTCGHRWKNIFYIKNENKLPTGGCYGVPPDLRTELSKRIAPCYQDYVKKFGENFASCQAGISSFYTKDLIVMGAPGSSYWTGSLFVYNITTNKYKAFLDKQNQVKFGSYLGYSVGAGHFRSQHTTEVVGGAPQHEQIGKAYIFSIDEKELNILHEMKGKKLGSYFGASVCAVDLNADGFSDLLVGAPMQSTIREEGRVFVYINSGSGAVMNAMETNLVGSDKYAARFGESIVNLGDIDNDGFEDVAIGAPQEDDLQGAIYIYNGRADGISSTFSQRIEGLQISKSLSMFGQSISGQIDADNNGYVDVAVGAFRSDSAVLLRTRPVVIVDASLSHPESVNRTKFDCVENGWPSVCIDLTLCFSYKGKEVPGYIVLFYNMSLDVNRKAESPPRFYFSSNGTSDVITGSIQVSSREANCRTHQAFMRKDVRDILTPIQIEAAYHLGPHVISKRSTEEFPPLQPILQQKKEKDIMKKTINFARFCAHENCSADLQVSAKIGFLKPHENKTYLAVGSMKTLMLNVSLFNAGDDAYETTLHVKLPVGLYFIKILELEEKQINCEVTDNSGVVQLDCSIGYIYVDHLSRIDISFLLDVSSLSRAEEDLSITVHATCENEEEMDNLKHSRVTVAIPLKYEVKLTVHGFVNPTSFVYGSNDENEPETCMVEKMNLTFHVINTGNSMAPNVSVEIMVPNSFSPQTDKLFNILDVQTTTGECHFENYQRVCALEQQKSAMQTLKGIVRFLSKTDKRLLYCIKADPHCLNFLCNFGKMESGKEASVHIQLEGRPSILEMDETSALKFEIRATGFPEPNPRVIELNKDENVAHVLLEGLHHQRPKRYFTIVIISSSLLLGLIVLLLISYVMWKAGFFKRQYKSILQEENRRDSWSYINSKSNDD

T2: Human α9 integrin sequence SSSVIQFMSRAKVKVDPALRV (SEQ ID NO: 91) (human, coupled to a cellulose membrane via C6-spacer and 2 βAla residues)
T2 construct: Spots were twelve-residue peptides offset by three residues
T2 peptide: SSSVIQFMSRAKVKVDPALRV

T3: Human α9 integrin sequence CSVGFPFMRSKSKYEFSV (SEQ ID NO: 90) (human, also: coupled to cellulose membrane via C6-spacer and 2 βAla, end not given here)
T3 construct: Spots were twelve-residue peptides offset by three residues
T3 peptide: CSVGFPFMRSKSKYEFSV

T4: Human α9 integrin sequence RHYVAHVKRRVQDVISPI (SEQ ID NO: 87) (human, also: coupled to cellulose membrane via C6-spacer and 2 βAla, end not given here)
T4 construct: Spots were twelve-residue peptides offset by three residues
T4 peptide: RHYVAHVKRRVQDVISPI

T5: Human α9 integrin sequence KSPGAVFKCRVHTNPDRR (SEQ ID NO: 78) (human, also: coupled to cellulose membrane via C6-spacer and 2 βAla, end not given here)
T5 construct: Spots were twelve-residue peptides offset by three residues
T5 peptide: KSPGAVFKCRVHTNPDRR

T6: Human α9 integrin sequence GFCYIIPSNLQAKGRTLI (SEQ ID NO: 81) (human, also: coupled to cellulose membrane via C6-spacer and 2 βAla, end not given here)
T6 construct: Spots were twelve-residue peptides offset by three residues
T6 peptide: GFCYIIPSNLQAKGRTLI

T7: Human α9 integrin sequence VIMNRRYTYLGYAVT (SEQ ID NO: 83) (human, also: coupled to cellulose membrane via C6-spacer and 2 βAla, end not given here)
T7 construct: Spots were twelve-residue peptides offset by three residues
T7 peptide: VIMNRRYTYLGYAVT

T8: Human α9 integrin sequence CAHRWKNIYYEADHI (SEQ ID NO: 80) (human, also: coupled to cellulose membrane via C6-spacer and 2 βAla, end not given here)
T8 construct: Spots were twelve-residue peptides offset by three residues
T8 peptide: CAHRWKNIYYEADHI

T9: Human α9 integrin sequence VMGAPGSFYWAGTIKVLN (SEQ ID NO: 82) (human, also: coupled to cellulose membrane via C6-spacer and 2 βAla, end not given here)
T9 construct: Spots were twelve-residue peptides offset by three residues
T9 peptide: VMGAPGSFYWAGTIKVLN

T10: Human α9 integrin sequence QYSMKLSGQKINPVLRMFGQSISG (SEQ ID NO: 85) (human, coupled to a cellulose membrane via C6-spacer and 2 βAla residues)
T10 construct: Spots were twelve-residue peptides offset by three residues
T10 peptide: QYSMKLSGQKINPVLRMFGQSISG

T11: Human α9 integrin sequence YLALGAVKNISL (SEQ ID NO: 89) (human, also: coupled to cellulose membrane via C6-spacer and 2 βAla (end not given here))
T11 construct: Spots were twelve-residue peptides offset by three residues
T11 peptide: YLALGAVKNISL


Key:
human α4 integrin [1] = biological target: T1, human α4 integrin; assay: FACS, FITC-labeled anti-mouse IgG secondary
Experimental: Whether the anti-human α9 integrin antibodies were usable for FACS was examined using Human α9/CHO-K1 cells, CHO-K1 cells and human neutrophils endogenously expressing the α9 integrin. In human neutrophils, FACS analysis was conducted at the cell count of 1.0×10⁵ and antibodies were reacted on ice. Non-specific reaction with the Fc receptor was blocked with 50% goat serum. FITC-labeled anti-mouse IgG antibody was used as a secondary antibody. As a result (see FIGS. 20a, 20b and 20c), all of the anti-human α9 integrin antibodies could detect the α9 integrin on Human α9/CHO-K1 and human neutrophils. None of the antibodies reacted with Human α4/CHO-K1 cells (see FIGS. 20a, 20b and 20c).

[2] = biological target: T2, Human α9 integrin sequence …; assay: peptide spot membrane, peroxidase-labelled antibody, ECL
Experimental: (§1) Twelve-residue polypeptides, starting from N-terminal of human α9 integrin and every three residues thereafter (i.e., amino acid residues 1-12, 4-15, 7-18, and so forth) were prepared and coupled to a cellulose membrane via C6-spacer and 2 βAla residues at 5 nmol/spot. The membrane was blocked with a blocking buffer (milk/0.05% Tween20 in PBS) and reacted with 10 ml of solution containing 1.0 μg/ml of each of the anti-human α9 integrin monoclonal antibodies (i.e., 1K11, 21C5, 24I11 and 25 B6, respectively) labeled with peroxidase for three hours at room temperature. After washing with T-TBS, the membrane was reacted with enhanced chemiluminescence (ECL) detecting reagent for 1 minute at room temperature. The luminescence emitted as a result of the enzymatic reaction is measured and epitopes of the antibodies were determined based on the luminescence intensities. As a control, Y9A2 (see Wang et al., 1996, Am J Respir Cell Mol Biol 15, 664-672), a commercially available monoclonal antibody against human α9 integrin, was used.

[3] = biological target: T3, Human α9 integrin sequence …; assay: as above
Experimental: as §1

[4] = biological target: T12, Human α9 integrin sequence … (SEQ ID NO: 84) (human, coupled to a cellulose membrane via C6-spacer and 2 βAla residues); assay: as above
T12 construct: Spots were twelve-residue peptides offset by three residues
Experimental: as §1

[5] = biological target: T4, Human α9 integrin sequence …; assay: as above
Experimental: as §1

[6] = biological target: T5, Human α9 integrin sequence …; assay: as above
Experimental: as §1

[7] = biological target: T6, Human α9 integrin sequence …; assay: as above
Experimental: as §1

[8] = biological target: T7, Human α9 integrin sequence …; assay: as above
Experimental: as §1

[9] = biological target: T13, Human α9 integrin sequence … (SEQ ID NO: 79) (human, coupled to a cellulose membrane via C6-spacer and 2 βAla residues); assay: as above
T13 construct: Spots were twelve-residue peptides offset by three residues
Experimental: as §1

[10] = biological target: T8, Human α9 integrin sequence …; assay: as above
Experimental: as §1

[11] = biological target: T9, Human α9 integrin sequence …; assay: as above
Experimental: as §1

[12] = biological target: T10, Human α9 integrin sequence …; assay: as above
Experimental: as §1

[13] = biological target: T11, Human α9 integrin sequence YLALGAVKNISL …; assay: as above
Experimental: as §1

[14] = biological target: T14, Human α9 integrin sequence … (SEQ ID NO: 86) (human, coupled to a cellulose membrane via C6-spacer and 2 βAla residues); assay: as above
T14 construct: Spots were twelve-residue peptides offset by three residues
Experimental: as §1

human α4 integrin [15] = biological target: T1, human α4 integrin; assay: hybridoma screening on transfected CHO-K1 cells

Row | binding result (human α4 integrin [1]) | binding result [2] | binding result [3] | binding result [4] | binding result [5] | binding result [6] | binding result [7] | binding result [8] | binding result [9] | binding result [10] | binding result [11] | binding result [12] | binding result [13] | binding result [14] | binding result (human α4 integrin [15]) | Binder
1 | no binding | binds | binds | binds | binds | binds | binds | binds | binds | binds | binds |  |  |  |  | 24I11 mouse anti-human α9 integrin monoclonal antibody (FERM BP-10512) (antibody, mouse IgG1, V domains shown, Mouse IgG1/kappa from hybridoma; also called mouse 24I11) VH: EVQLQQSGAELVKPGASVKLSCTASGFNIKDTYVHWVKQRPEQGLEWIGNIDPANGNTKYDPKFQGKATITADTSSNTAYLHLSSLTSEDTAVYYCARWLRHFYYAMDYWGQGTSVTVSS VL: DIQMTQSPASLAASVGETVTITCRASENIYYSLAWYQQKQGKSPQLLIYNANSLEDGVPSRFSGSGSGTQYSMKINSMQPEDTATYFCKQAYDVPYTFGGGTKLEIK
2 |  | binds | binds | binds | binds | binds | binds | binds | binds | binds | binds | binds | binds | binds | no binding | 1K11 mouse anti-human α9 integrin monoclonal antibody (FERM BP-10510) (antibody, mouse IgG1, V domains shown, Mouse IgG1 from hybridoma) VH: VQLQESGPELVKPGASVKIPCKASGYTFTDYNMDWVKQSHGKSLEWIGDINPNNGGTIYNQKFQGKATLTVDKSSSTAYMELRSLTSEDTAVYYCARSGVISTDYWGQGTTVTVSS VL: DIQMTQSPPSLSASLGERVSLTCRASQEISGYLIWLQQKPDGTIQRLIYAASTLDSGVPKRFSGSRSGSDYSLTISSLESEDFADYYCLQYANYPPTFGGGTKLEIKR
3 |  |  |  |  |  |  |  |  |  |  |  |  |  |  | no binding | 21C5 mouse anti-human α9 integrin monoclonal antibody (FERM BP-10511) (antibody, mouse IgG1, V domains shown, Mouse IgG1 from hybridoma; cloned with degenerate primers) VH: VQLQESGGGLVKPGGSLKLSCAASGFTFSDYYMYWVRQTPEKRLEWVATISDGGNYTYYPDSVKGRFTISRDNAKNNLYLQMSSLKSEDTAMYYCARDRDGSSLFAYWGQGTTVTVSS VL: KFMSTSVGDRVSITCKASQDVNIAVAWYQQRPGQSPKLLIYWASTRHTGVPDRFTGSGSGTDYTLTISSVQAEDLALYYCQQHYNTPWTFGGGTKLEIKR
4 | no binding |  |  |  |  |  |  |  |  |  |  |  |  |  |  | 28S1 mouse anti-human α9 integrin monoclonal antibody (FERM BP-10832) (antibody, mouse IgG1, V domains shown, Mouse IgG1 from hybridoma) VH: VKLQESGPGLVAPSQSLSITCTVSGFSLTGYGVNWVRQPPGKGLEWLGMIWGDGITEYNSALKSRLSISKDNSKSQVFLKMNSLQTDDTARYYCARDASSGYGFAYWGQGTTVTVSS VL: YIVLTQSPAIMSASLGERVTMTCTASSSVSSSYLHWYQQKPGSSPKLWIYSTSNLASGVPARFSGSGSGTSYSLTISSMEAEDAATYYCHQYHRSPYTFGGGTKLEIKR
